# Positions count from the first letter of the chain named.
# T1: hCFHR4b
# T1 chain: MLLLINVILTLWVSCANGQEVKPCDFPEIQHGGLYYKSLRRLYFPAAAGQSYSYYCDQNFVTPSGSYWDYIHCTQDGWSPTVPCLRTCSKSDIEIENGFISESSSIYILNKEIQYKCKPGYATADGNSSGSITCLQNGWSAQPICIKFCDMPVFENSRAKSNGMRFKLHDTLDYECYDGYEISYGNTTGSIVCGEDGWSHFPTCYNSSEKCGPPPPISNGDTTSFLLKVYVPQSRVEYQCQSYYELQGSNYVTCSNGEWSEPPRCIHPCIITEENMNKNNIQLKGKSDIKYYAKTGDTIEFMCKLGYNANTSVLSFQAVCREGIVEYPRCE
# T2: FHR-4 (coated on plate, C3 convertase assembly assay) (UniProt Q92496 20-331)
# T2 chain: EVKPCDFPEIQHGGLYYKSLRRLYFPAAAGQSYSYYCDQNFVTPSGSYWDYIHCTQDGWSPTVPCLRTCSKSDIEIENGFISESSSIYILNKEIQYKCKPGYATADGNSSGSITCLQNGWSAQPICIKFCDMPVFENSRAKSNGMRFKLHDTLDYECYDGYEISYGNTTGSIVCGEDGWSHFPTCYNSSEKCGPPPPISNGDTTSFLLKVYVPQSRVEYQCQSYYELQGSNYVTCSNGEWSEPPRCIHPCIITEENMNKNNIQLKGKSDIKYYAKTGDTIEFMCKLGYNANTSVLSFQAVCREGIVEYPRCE
# B1: ATX-P-594 (antibody, V domains shown)
# VH: QVQLQQSGPGLVKPSQTLSLTCAISGDSVSSNSASWNWIRQSPSRGLEWLGTTYYRSKWFNVYAVSVKSRITINPDTSKNQFSLHLNSVTPEDTAIYFCTRDRGDLLHWYFDLWGRGTLVTVSS
# VL: EIVLTQSPGTLSLSPGERATLSCRASQSVSSSYLAWYQQKPGQSPRLLIYGASSRATGIPDRFSGSGSGTDFTLTISRLEPEDFAVYYCQQYGRSVTFGGGTKLEIKR
# B2: ATX-P-595 (antibody, V domains shown)
# VH: QVQLQQSGPGLVKPSQTLSLTCAISGDSVSSNSAAWNWIRQSPSRGLEWLGRTYYRSKWFNDYALSVKSRITINPDTSKNQFSLHLNSVTPEDTAVYYCAREPGIVAPGPFDYWGQGTLVTVSS
# VL: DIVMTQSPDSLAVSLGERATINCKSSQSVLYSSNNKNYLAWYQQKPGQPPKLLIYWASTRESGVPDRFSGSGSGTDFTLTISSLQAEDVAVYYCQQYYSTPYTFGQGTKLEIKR
# B3: ATX-P-600 (antibody, V domains shown)
# VH: EVQLVESGGGLVQPGRSLRLSCAASGFTFDDYAMHWVRQVPGRGLEWVSGISWSGGSIGYADSVKGRFTISRDNSKNSLYLQMNSLRAEDTALYYCTKDREDGYNYGGVFDYWGQGTLVTVSS
# VL: EIVLTQSPGTLSLSPGERATLSCRASQNVRGSYLAWYQQKPGQAPRLLIYGASNRATDIPDRFSGSGSGTDFTLTISGLEPEDFVVYYCQQYGSSYTFGQGTKVEIKR
# B4: ATX-P-603 (antibody, V domains shown)
# VH: QVQLQESGPGLVKPSGTLSLTCAVSGGSISGSHWWSWFRQPPGKGLEWIGEIYHTGSTNKNPSLKSRVTISLDKSKNQFSLRLRSVTDADTAVYYCARDQYTGSPRDAFDIWGQGTMVTVSS
# VL: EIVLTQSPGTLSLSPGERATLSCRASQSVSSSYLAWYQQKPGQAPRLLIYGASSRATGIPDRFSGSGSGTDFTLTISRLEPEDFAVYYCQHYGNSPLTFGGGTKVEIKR
# B5: ATX-P-592 (antibody, V domains shown)
# VH: B2 VH with F60Y, N61S, A64P, H85Q, E102D, P103S, A107E, P108T, G109T
# VL: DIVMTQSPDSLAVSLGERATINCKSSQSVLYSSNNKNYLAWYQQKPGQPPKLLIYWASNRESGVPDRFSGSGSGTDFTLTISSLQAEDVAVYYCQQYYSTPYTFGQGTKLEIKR
# B6: ATX-P-578 (antibody, V domains shown)
# VH: EVQLVESGGGLVQPGGSLRLSCAASGFTFSRYSMNWVRQAPGKGLEWVSYISSSSSTIFHADSVKGRFTISRDNAKNSLYLQMNSLRDEDTAVYYCARGNWNYYYMDVWGKGTTVTVSS
# VL: DIQMTQSPSTLSASVGDRVTISCRASQSVNSWLAWYQQKPGKAPKLLIYKASNLEGGVPSSFSGSGSGTEFTLTISSLQPDDFATYYCQQYDTSWTFGQGTKVEIKR
# B7: ATX-P-581 (antibody, V domains shown)
# VH: QVQLQQSGPGLVKPSQTLSLTCAISGDSVSSNNAAWNWIRQSPSRGLEWLGRTYYRSKWYNAYAVSVKSRIIINPDTSRNQFSLQLNSVTPEDTAVYYCAREGGYIYGLDQWGQGTLVTVSS
# VL: DIQMTQSPSSVSASVGDRVTITCRASQGVNNWLAWYQQKPGKAPKLLIHAASSLLSGVPSRFSGSGSGTDFTLTITSLQPEDFATYYCQQANSFPITFGQGTRLEIKR
# B8: ATX-P-576 (antibody, V domains shown)
# VH: EVQLVESGGGLVQPGRSLRLSCTASGFTFDDYEMHWVRQAPGKGLEWVSDISRNSGRIGYADSVKGRFTISRDNAKNSLYLQMNSLRAEDTALYYCAKDIWGSGYFDYWGQGILVTVSS
# VL: B7 VL with A25T, V29I, N30R, H49Y, L55Q, S56T, V58G, T76S, I96Y, R103K
# B9: ATX-P-573 (antibody, V domains shown)
# VH: B7 VH with N33S, W59L, N61S, A62D, I72T, I106T, L109Y, Q111Y
# VL: DIQMTQSPSSVSASVGDRVTITCRASQGISSWLAWYQQKPGKAPKVLIYAASSLQSGVPSRFSGSGSGTDFTLTISSLQPEDFATYYCQQANSFPPTFGPGTKVDIKR
# B10: ATX-P-565 (antibody, V domains shown)
# VH: QVQLVESGGGVVQPGRSLRLSCAASGFTFNTYGIHWVRQAPGKGLEWVAVIWHDGSSKNYVDSVTGRFTISRDNSKNTVYLQMNSLRAEDTAVYYCARRGNWNYGFYYYYMDVWGKGTTVTVSS
# VL: DIVMTQSPLSLPVTPGEPASISCRSSQRLLHSSGYNYLDWYLQKPGQSPQLLIYLGSSRASGVPDRFSGSGSGTDFTLKISRVEAEDVGVYYCMQGLQTPPTFGQGTKVEIKR
# B11: ATX-P-568 (antibody, V domains shown)
# VH: EVQLVESGGGLVQPGGSLRLSCAASGFPFSSYVMSWVRQAPGKGLEWVSVISVSGGSTFYADSVRGRFTISRDNSKNTLYLQVYSLRAEDTAVYYCAKDGLAVAGFDHWGQGTLVTVSS
# VL: DIQMTQSPSTLSASVGDRVTITCRASQSISTWLAWYQQKPGKAPKLLIHKASGLESGVPSRFSGSGSGTEFTLTISSLQPDDFATYYCQQYNSFSLIFGGGTRVEIKR
# B12: ATX-P-604 (antibody, V domains shown)
# VH: QVQLQQSGPGLVKPTQTLSLTCAISGDSVSSNSAAWNWIRQSPSRGLEWLGRTYYRSKWFNGYAVSVKSRITINPDASKNQFSLHLKSVTDEDTAVYYCATDRGELLHWYFDLWGRGTLVTVSS
# VL: B1 VL with G9D, S28T, V29I, S30R, Q39L, S44A, T75S, V96I, T97I, L104V
# B13: ATX-P-566 (antibody, V domains shown)
# VH: QVQLQQSGPGLVKPSQTLSLTCAISGDSVSSNSAAWNWIRQSPSRGLEWLGRTYYRSKWFNNYSVSVKSRIAINPDTSKNQFSLQLNSVTPEDTAVYYCARDLGELLDWYFDLWGRGTLVTVSA
# VL: EIVLTQSPGTLSLSPGDRATLSCRASQSVRNSYVAWYQQKPGQAPRLLIYGASSRATGIPDRFSGSGSGTDFSLTIGRLEPEDFVVYYCQQYGNSPLTFGGGTKVEIKR
# B14: ATX-P-563 (antibody, V domains shown)
# VH: QVQLQESGPGLMKPSETLSLTCTVSGGSISSHYWSWIRQPPGKGLEWIGYIFYSGNINYNPSLKSRVTISVDTSKNQFSLKLRSVTTADTAVYYCARDRGGSYSYHFDCWGQGTLVTVSS
# VL: B9 VL with G28S, I29F, S30A, S31G, V46L, S53T, P96L, P100G, D105E
# B15: ATX-P-587 (antibody, V domains shown)
# VH: QVQLQQSGPGLVKPSQTLSLTCAISGDSVSSNSAAWNWIRQSPSRGLEWLGKTYYRSKWYNYYALSVKSRITINPDTSKNQFSLHLNSVTPEDTAVYYCARDGDYYLPSPFDLWGHGTMVTVSS
# VL: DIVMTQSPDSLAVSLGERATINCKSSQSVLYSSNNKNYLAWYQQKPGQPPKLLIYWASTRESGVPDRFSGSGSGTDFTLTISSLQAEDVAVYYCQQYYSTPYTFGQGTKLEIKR
# B16: ATX-P-582 (antibody, V domains shown)
# VH: QVQLQESGPGLVKPSGTLSLTCAVSGGSISISKWWSWVRQPPGKGLEWIGEIYHTGSTNYHPSLKSRVTISVDKSKNQFYLKLNSVTAADTAVYYCARDELRLGELSPSLDIWGQGTMVTVSS
# VL: DIQMTQSPSSLSASVGDRVTITCRASQNINNYLNWFRQKPGKAPKLLIFAASSLQSGVPSRFSGSESGTDFTLTISSLQPEDFATYYCQQSYSTPLTFGGGTKVEIKR
# B17: ATX-P-591 (antibody, V domains shown)
# VH: QVQLVQSGAEVKKPGASVKVSCKASGYTFTSYGISWVRQAPGQGLEWMGWISAYNGNTNYAQKLQGRVTMTTDTSTSTAYMELRSLRSDDTAIYYCTRDLRGTAFDYWGQGTPVTVSS
# VL: DIQMTQSPSSLSASVGDRVTITCRASQSINTYLNWYQQKPGKAPKLLIYAASSLQSGVPSRFSGSGSGTDFTLTISSLQPEDFATYSCQHSFTTPFTFGPGTKLEIKR
# B18: ATX-P-596 (antibody, V domains shown)
# VH: EVQLVESGGGLVQPGRSLRLSCAASGFSFDDYAMHWVRQVPGKGLEWVSGISWTGGSVGYADPVKGRFTISRDNAKNSLYLQMNSLRPEDTALYYCAKDMGDGYSRNWPFDYWGQGTLVTVSS
# VL: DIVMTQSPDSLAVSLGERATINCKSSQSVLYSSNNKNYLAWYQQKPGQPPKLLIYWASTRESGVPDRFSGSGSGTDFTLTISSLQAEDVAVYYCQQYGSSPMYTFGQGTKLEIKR
# B19: ATX-P-564 (antibody, V domains shown)
# VH: EVQLVESGGGLVKPGGSLRLSCAASGFTFSSYTMNWVRQAPGKGLEWVSSISSSSSYTYYADSVRGRFTISRDNAKNSLYLQMSSLRAEDTAVYYCARSASIAAGMDVWGKGTTVTVSS
# VL: B10 VL with R28S, S33T, Y37F, Q47L, G56A, S58N, G96A, P101Y, V109L
# B20: ATX-P-577 (antibody, V domains shown)
# VH: QVQLQESGPGLVKPSGTLSLTCAVSGGSISSSNWWTWVRQPPGKGLEWIGETYHDGSTNYNPSLKSRVTISVDKSKNQFSLKLSSVTAADTAVYYCLEFYFDYWGQGTLVTVSS
# VL: DIQMTQSPSSLSASVGDRVTITCRASQDIRNDLGWYQQKPGKVPKRLIYAASSLQSGVPSRFSGSGSGTEFTLTISSLQPEDFASYYCLQYNNYPFTLGPGTKVDIKR
# Target: T1, hCFHR4b
# Experiment: SPR kinetics
row,Binder,Kd
1,B1,0.326 nM
2,B2,16.9 nM
3,B3,7.39 nM
4,B4,0.917 nM
5,B5,0.973 nM

# Target: hCFHR4
# Experiment: SPR kinetics
row,Binder,Kd
1,B1,0.326 nM
2,B2,16.9 nM
3,B3,7.39 nM
4,B4,0.917 nM
5,B5,0.973 nM
6,B6,25 nM
7,B7,9.65 nM
8,B8,0.9 nM
9,B9,23 nM
10,B10,6.9 nM
11,B11,1.62 nM
12,B12,0.222 nM
13,B13,3.48 nM
14,B14,1.05 nM
15,B15,4.26 nM
16,B16,10 nM
17,B17,117 nM
18,B18,0.225 nM
19,B19,3.56 nM
20,B20,0.665 nM

# Target: T2, FHR-4 (coated on plate, C3 convertase …)
# Experiment: C3 convertase assembly assay
row,Binder,IC50
1,B1,4.09 nM
2,B2,5.94 nM
3,B3,8.44 nM
4,B4,7.6 nM
5,B5,4.28 nM
6,B13,3.27 nM
7,B19,3.94 nM

# Target: T2, FHR-4 (coated on plate, C3 convertase …)
# Experiment: C3 convertase assembly assay
# Remark: another data set of the same source
row,Binder,IC50
1,B1,4 nM
2,B2,5.9 nM
3,B3,8.4 nM
4,B4,7.6 nM
5,B5,4.2 nM

# From patent US20250289873A1 (published 2025)
